Reference: US20180118840A1 (Eli Lilly, published 2018)

T1: human Dkk-1 (Dickkopf-related protein 1) (human, UniProt O94907 32-266)
T1 sequence (looked up): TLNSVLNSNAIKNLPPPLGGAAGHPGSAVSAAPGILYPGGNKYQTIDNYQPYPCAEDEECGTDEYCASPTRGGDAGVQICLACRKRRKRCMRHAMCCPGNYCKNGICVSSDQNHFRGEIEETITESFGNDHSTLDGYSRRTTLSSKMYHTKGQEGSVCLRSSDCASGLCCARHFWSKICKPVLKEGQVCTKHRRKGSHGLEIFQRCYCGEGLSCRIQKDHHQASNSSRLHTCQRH

T2: human RANKL (receptor activator of nuclear factor kappa-B ligand) (human, UniProt O14788 140-317, limits assumed)
T2 construct: Soluble analyte in SPR; soluble hRANKL at 100 ng/mL in the reporter assay; also called hRANKL
T2 sequence (looked up): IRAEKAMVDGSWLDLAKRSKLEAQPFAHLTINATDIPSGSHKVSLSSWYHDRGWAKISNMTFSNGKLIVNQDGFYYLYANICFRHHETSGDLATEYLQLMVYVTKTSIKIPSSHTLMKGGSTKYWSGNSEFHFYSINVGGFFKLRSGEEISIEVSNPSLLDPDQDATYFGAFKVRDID


What was measured:
[1] = target: T1, human Dkk-1 (Dickkopf-related protein 1); assay: cell-based or functional assay
[2] = target: T1, human Dkk-1 (Dickkopf-related protein 1); assay: SPR (Biacore 2000), antibody captured on protein A, antigen as analyte, 1:1 model, average of n=3
Procedure: (§1) A CM5 chip (Biacore, pin. BR-100530) containing immobilized protein A (generated using standard NHS-EDC amine coupling) on all four flow cells (Fc) is used to employ a capture methodology. Antibody samples are prepared at 0.2-10 μg/mL by dilution into running buffer. Human Dkk-1 samples are prepared at final concentrations of 100 nM, 50 nM, 25 nM, 12.5 nM, 6.25 nM, 3.125 nM, 1.5625 nM, 0.78125 nM, 0.390625 nM, 0.1953125 nM, and 0 (blank) nM by dilution into running buffer. Human RANKL are prepared at final concentrations of 100 nM, 50 nM, 25 nM, 12.5 nM, 6.25 nM, 3.125 nM, 1.5625 nM, 0.78125 nM, 0.390625 nM, 0.1953125 nM, and 0 (blank) nM by dilution into running buffer.
(§2) Each analysis cycle consists of (1) capturing antibody samples on separate flow cells (Fc2 and Fc3); (2) injection of each human Dkk-1 concentration over all Fc at 50 μL/min for 300 seconds followed by return to buffer flow for 1200 seconds to monitor dissociation phase; (3) injection of each human RANKL concentration over all Fc at 100 μL/min for 150 seconds followed by return to buffer flow for 1800 seconds to monitor dissociation phase; (4) regeneration of chip surfaces with injection of 10 mM glycine, pH 1.5, for 120 seconds at 5 μL/min over all cells; and (5) equilibration of chip surfaces with a 10 μL (60-sec) injection of HBS-EP+. Data are processed using standard double-referencing and fit to a 1:1 binding model using Biacore 2000 Evaluation software, version 2.0.3, to determine the association rate (kₒₙ, M⁻¹s⁻¹ units), dissociation rate (koff, s⁻¹ units), and Rₘₐₓ (RU units). The equilibrium dissociation constant (KD) is calculated from the relationship KD=koff/kₒₙ, and is in molar units.

[3] = target: T2, human RANKL (receptor activator of …); assay: SPR (Biacore 2000), antibody captured on protein A, antigen as analyte, 1:1 model, average of n=5
Procedure: as §1, §2

[4] = target: T2, human RANKL (receptor activator of …); assay: cell-based or functional assay

| EC50, restoration of Wnt3a-induced TCF/LEF luciferase luminescence in MC3T3E1/Topflash cells [1] | Kd [2] | koff [2] | kon [2] | Kd [3] | koff [3] | kon [3] | IC50, reduction of RANKL-induced NF-kB driven luciferase luminescence in HEK293 cells expressing human RANK [4] | Binder |
| --- | --- | --- | --- | --- | --- | --- | --- | --- |
| 6.61 nM | – | – | – | – | – | – | – | Dkk-1 neutralizing antibody (a Dkk-1 antibody having an IgG4 backbone and the same heavy and light chain variable region sequences as the mAb portion of the … (antibody, V domains shown) VH: EVQLVESGGGLVQPGGSLRLSCAASGFTFSSYTMSWVRQAPGKGLEWVATISGGGFGTYYPDSVKGRFTISRDNAKNSLYLQMNSLRAEDTAVYYCARPGYNNYYFDIWGQGTTVTVSS VL: EIVLTQSPATLSLSPGERATLSCHASDSISNSLHWYQQKPGQAPRLLIYYARQSIQGIPARFSGSGSGTDFTLTISSLEPEDFAVYYCQQSESWPLHFGGGTKVEIK |
| 5.3 nM | 0.0357 nM | 6.55e-05 s⁻¹ | 1.83e+06 M⁻¹ s⁻¹ | 0.0874 nM | 4.2e-05 s⁻¹ | 530000 M⁻¹ s⁻¹ | 1.2 nM | exemplified bispecific antibody compound of Table 1 (anti-Dkk-1 IgG4 mAb with anti-RANKL scFv linked at the C-terminus of each heavy chain) (bispecific antibody, glycosylated at asparagine residue 296 of SEQ ID NO: 1, also called Exemplified Bispecific Ab) heavy: not shown light: EIVLTQSPATLSLSPGERATLSCHASDSISNSLHWYQQKPGQAPRLLIYYARQSIQGIPARFSGSGSGTDFTLTISSLEPEDFAVYYCQQSESWPLHFGGGTKVEIKRTVAAPSVFIFPPSDEQLKSGTASVVCLLNNFYPREAKVQWKVDNALQSGNSQESVTEQDSKDSTYSLSSTLTLSKADYEKHKVYACEVTHQGLSSPVTKSFNRGEC |
